From the supplement of paper PMC10724198
± gives the standard deviation of the averaged measurements.

Experiments:
Saccharomyces cerevisiae [1] = assay: protein stability index of tFT-peptide fusion (C-terminal peptide) (PSI (0-1 scale)); higher = more stable (slower turnover)
Experimental: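 MPS profiling in S. cerevisiae of the tFT-X12 degron library: putative degron peptides plus stable controls, 12 aa, fused to the C-terminus of a sfGFP-mCherry timer. Cells are FACS-sorted into 8 mCherry/sfGFP bins and deep-sequenced. PSI runs from 0 (unstable) to 1 (stable). Backgrounds are wild type, das1Δ and doa10Δ at 30 °C, and wild type, das1Δ, cdc34-1 and cdc53-1 at 37 °C; 2-3 technical replicates each.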

Saccharomyces cerevisiae [2] = assay: as above; conditions: genetic background: wild type; temperature: 30 C
[3] = genetic background: cdc34-1, temperature: 37 C
[4] = genetic background: cdc53-1, temperature: 37 C
[5] = genetic background: das1 deletion, temperature: 30 C
[6] = genetic background: das1 deletion, temperature: 37 C
[7] = genetic background: doa10 deletion, temperature: 30 C
[8] = genetic background: wild type, temperature: 30 C
[9] = genetic background: wild type, temperature: 37 C
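Note: PSI is a weighted mean of sequencing reads over stability bins, variants kept only with over 10 reads, mCherry proximal and sfGFP distal, peptide attached via GGGS linker.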

FFFWLLCAGWLL gave a protein stability index (Saccharomyces cerevisiae [1]; [3]) of 0.661 ± 0.01, a protein stability index (Saccharomyces cerevisiae [1]; [4]) of 0.622 ± 0.012 and a protein stability index (Saccharomyces cerevisiae [1]; [5]) of 0.544 ± 0.044. The protein stability index (Saccharomyces cerevisiae [1]; [6]) was 0.656 ± 0.0071, the protein stability index (Saccharomyces cerevisiae [1]; [7]) was 0.551 ± 0.041 and the protein stability index (Saccharomyces cerevisiae [1]; [8]) was 0.534 ± 0.0081. The protein stability index (Saccharomyces cerevisiae [1]; [9]) was 0.649 ± 0.0073.
Sequence GAQQRVKERYIE has a protein stability index (Saccharomyces cerevisiae [1]; [3]) of 0.648 ± 0.012, a protein stability index (Saccharomyces cerevisiae [1]; [4]) of 0.721 ± 0.027 and a protein stability index (Saccharomyces cerevisiae [1]; [5]) of 0.636 ± 0.028. For the same sequence, the protein stability index (Saccharomyces cerevisiae [1]; [6]) was 0.7346 ± 0.0027, the protein stability index (Saccharomyces cerevisiae [1]; [7]) was 0.6157 ± 0.0038 and the protein stability index (Saccharomyces cerevisiae [1]; [8]) was 0.646 ± 0.03. For the same sequence, the protein stability index (Saccharomyces cerevisiae [1]; [9]) was 0.741 ± 0.00086.
With GGGGVFGVWVWM the protein stability index (Saccharomyces cerevisiae [1]; [3]) was 0.533 ± 0.058, the protein stability index (Saccharomyces cerevisiae [1]; [4]) was 0.618 ± 0.018 and the protein stability index (Saccharomyces cerevisiae [1]; [5]) was 0.511 ± 0.013. The protein stability index (Saccharomyces cerevisiae [1]; [6]) was 0.656 ± 0.0086, the protein stability index (Saccharomyces cerevisiae [1]; [7]) was 0.23 ± 0.017 and the protein stability index (Saccharomyces cerevisiae [1]; [8]) was 0.272 ± 0.024. The protein stability index (Saccharomyces cerevisiae [1]; [9]) was 0.494 ± 0.014.
With GRTDFSTLLLIC the protein stability index (Saccharomyces cerevisiae [1]; [3]) was 0.491 ± 0.016, the protein stability index (Saccharomyces cerevisiae [1]; [4]) was 0.6912 ± 0.0053 and the protein stability index (Saccharomyces cerevisiae [1]; [5]) was 0.564 ± 0.018. It also gave a protein stability index (Saccharomyces cerevisiae [1]; [6]) of 0.683 ± 0.019, a protein stability index (Saccharomyces cerevisiae [1]; [7]) of 0.106 ± 0.012 and a protein stability index (Saccharomyces cerevisiae [1]; [8]) of 0.132 ± 0.039. The protein stability index (Saccharomyces cerevisiae [1]; [9]) was 0.16 ± 0.056.
HSAIFLFFFFFG gave a protein stability index (Saccharomyces cerevisiae [1]; [3]) of 0.283 ± 0.11, a protein stability index (Saccharomyces cerevisiae [1]; [4]) of 0.4553 ± 0.0042 and a protein stability index (Saccharomyces cerevisiae [1]; [5]) of 0.314 ± 0.022. It also gave a protein stability index (Saccharomyces cerevisiae [1]; [6]) of 0.444 ± 0.03, a protein stability index (Saccharomyces cerevisiae [1]; [7]) of 0.331 ± 0.051 and a protein stability index (Saccharomyces cerevisiae [1]; [8]) of 0.296 ± 0.024. For the same sequence, the protein stability index (Saccharomyces cerevisiae [1]; [9]) was 0.401 ± 0.034.
For LLFFGFVGSCVF, the protein stability index (Saccharomyces cerevisiae [1]; [3]) was 0.6341 ± 0.0023, the protein stability index (Saccharomyces cerevisiae [1]; [4]) was 0.6187 ± 0.0052 and the protein stability index (Saccharomyces cerevisiae [1]; [5]) was 0.468 ± 0.028. The protein stability index (Saccharomyces cerevisiae [1]; [6]) was 0.671 ± 0.041, the protein stability index (Saccharomyces cerevisiae [1]; [7]) was 0.471 ± 0.047 and the protein stability index (Saccharomyces cerevisiae [1]; [8]) was 0.485 ± 0.036. For the same sequence, the protein stability index (Saccharomyces cerevisiae [1]; [9]) was 0.57 ± 0.0036.
For LPPHSASLSSSF, the protein stability index (Saccharomyces cerevisiae [1]; [3]) was 0.701 ± 0.054, the protein stability index (Saccharomyces cerevisiae [1]; [4]) was 0.7591 ± 0.0059 and the protein stability index (Saccharomyces cerevisiae [1]; [5]) was 0.635 ± 0.029. For the same sequence, the protein stability index (Saccharomyces cerevisiae [1]; [6]) was 0.725 ± 0.011, the protein stability index (Saccharomyces cerevisiae [1]; [7]) was 0.665 ± 0.015 and the protein stability index (Saccharomyces cerevisiae [1]; [8]) was 0.675 ± 0.022. It also gave a protein stability index (Saccharomyces cerevisiae [1]; [9]) of 0.704 ± 0.013.
NAAVQSGGRVAG gave a protein stability index (Saccharomyces cerevisiae [1]; [3]) of 0.67 ± 0.043, a protein stability index (Saccharomyces cerevisiae [1]; [4]) of 0.722 ± 0.05 and a protein stability index (Saccharomyces cerevisiae [1]; [5]) of 0.638 ± 0.01. For the same sequence, the protein stability index (Saccharomyces cerevisiae [1]; [6]) was 0.733 ± 0.0013, the protein stability index (Saccharomyces cerevisiae [1]; [7]) was 0.645 ± 0.025 and the protein stability index (Saccharomyces cerevisiae [1]; [8]) was 0.646 ± 0.0076. For the same sequence, the protein stability index (Saccharomyces cerevisiae [1]; [9]) was 0.696 ± 0.016.
Work on PACPPLPPRSPS yielded a protein stability index (Saccharomyces cerevisiae [1]; [3]) of 0.634 ± 0.0068, a protein stability index (Saccharomyces cerevisiae [1]; [4]) of 0.7142 ± 0.0047 and a protein stability index (Saccharomyces cerevisiae [1]; [5]) of 0.693 ± 0.028. The protein stability index (Saccharomyces cerevisiae [1]; [6]) was 0.737 ± 0.017, the protein stability index (Saccharomyces cerevisiae [1]; [7]) was 0.688 ± 0.069 and the protein stability index (Saccharomyces cerevisiae [1]; [8]) was 0.7 ± 0.015. For the same sequence, the protein stability index (Saccharomyces cerevisiae [1]; [9]) was 0.7 ± 0.024.
In the case of RPPHPPPATFLS, the protein stability index (Saccharomyces cerevisiae [1]; [3]) is reported as 0.617 ± 0.064, the protein stability index (Saccharomyces cerevisiae [1]; [4]) is reported as 0.7 ± 0.0084 and the protein stability index (Saccharomyces cerevisiae [1]; [5]) is reported as 0.679 ± 0.018. For the same sequence, the protein stability index (Saccharomyces cerevisiae [1]; [6]) was 0.727 ± 0.0097, the protein stability index (Saccharomyces cerevisiae [1]; [7]) was 0.226 ± 0.025 and the protein stability index (Saccharomyces cerevisiae [1]; [8]) was 0.253 ± 0.025. For the same sequence, the protein stability index (Saccharomyces cerevisiae [1]; [9]) was 0.487 ± 0.021.
RWRLWVGWGVVG gave a protein stability index (Saccharomyces cerevisiae [1]; [3]) of 0.621 ± 0.034, a protein stability index (Saccharomyces cerevisiae [1]; [4]) of 0.688 ± 0.022 and a protein stability index (Saccharomyces cerevisiae [1]; [5]) of 0.521 ± 0.0056. It also gave a protein stability index (Saccharomyces cerevisiae [1]; [6]) of 0.691 ± 0.039, a protein stability index (Saccharomyces cerevisiae [1]; [7]) of 0.425 ± 0.029 and a protein stability index (Saccharomyces cerevisiae [1]; [8]) of 0.368 ± 0.078. It also gave a protein stability index (Saccharomyces cerevisiae [1]; [9]) of 0.533 ± 0.059.
VGGREVSRAGGG showed a protein stability index (Saccharomyces cerevisiae [1]; [3]) of 0.62 ± 0.048, a protein stability index (Saccharomyces cerevisiae [1]; [4]) of 0.672 ± 0.0081 and a protein stability index (Saccharomyces cerevisiae [1]; [5]) of 0.49 ± 0.027. The protein stability index (Saccharomyces cerevisiae [1]; [6]) was 0.578 ± 0.06, the protein stability index (Saccharomyces cerevisiae [1]; [7]) was 0.477 ± 0.0076 and the protein stability index (Saccharomyces cerevisiae [1]; [8]) was 0.481 ± 0.011. It also gave a protein stability index (Saccharomyces cerevisiae [1]; [9]) of 0.534 ± 0.041.
VSVFWVFLLVAG was tested, and the protein stability index (Saccharomyces cerevisiae [1]; [3]) was 0.223 ± 0.0059, the protein stability index (Saccharomyces cerevisiae [1]; [4]) was 0.375 ± 0.011 and the protein stability index (Saccharomyces cerevisiae [1]; [5]) was 0.245 ± 0.024. It also gave a protein stability index (Saccharomyces cerevisiae [1]; [6]) of 0.4401 ± 0.0035, a protein stability index (Saccharomyces cerevisiae [1]; [7]) of 0.189 ± 0.012 and a protein stability index (Saccharomyces cerevisiae [1]; [8]) of 0.218 ± 0.024. For the same sequence, the protein stability index (Saccharomyces cerevisiae [1]; [9]) was 0.383 ± 0.016.
WPPPPPSLLLLC gave a protein stability index (Saccharomyces cerevisiae [1]; [3]) of 0.4666 ± 0.0016, a protein stability index (Saccharomyces cerevisiae [1]; [4]) of 0.548 ± 0.022 and a protein stability index (Saccharomyces cerevisiae [1]; [5]) of 0.473 ± 0.016. It also gave a protein stability index (Saccharomyces cerevisiae [1]; [6]) of 0.611 ± 0.017, a protein stability index (Saccharomyces cerevisiae [1]; [7]) of 0.127 ± 0.0019 and a protein stability index (Saccharomyces cerevisiae [1]; [8]) of 0.149 ± 0.019. For the same sequence, the protein stability index (Saccharomyces cerevisiae [1]; [9]) was 0.177 ± 0.024.
YIYIFLVWGWYC gave a protein stability index (Saccharomyces cerevisiae [1]; [3]) of 0.193 ± 0.056, a protein stability index (Saccharomyces cerevisiae [1]; [4]) of 0.314 ± 0.016 and a protein stability index (Saccharomyces cerevisiae [1]; [5]) of 0.214 ± 0.033. The protein stability index (Saccharomyces cerevisiae [1]; [6]) was 0.4232 ± 0.0041, the protein stability index (Saccharomyces cerevisiae [1]; [7]) was 0.103 ± 0.013 and the protein stability index (Saccharomyces cerevisiae [1]; [8]) was 0.132 ± 0.0065. For the same sequence, the protein stability index (Saccharomyces cerevisiae [1]; [9]) was 0.201 ± 0.018.
YLCARGIFTLYV showed a protein stability index (Saccharomyces cerevisiae [2]) of 0.602 ± 0.034.
With YLGCPSHLALPL the protein stability index (Saccharomyces cerevisiae [2]) was 0.721 ± 0.076.
With YLGTTHTGTSHR the protein stability index (Saccharomyces cerevisiae [2]) was 0.701 ± 0.019.
YLGYADDLLIML was tested, and the protein stability index (Saccharomyces cerevisiae [2]) was 0.707 ± 0.018.
In the case of YLPRLISAPVGP, the protein stability index (Saccharomyces cerevisiae [2]) is reported as 0.753 ± 0.076.
Sequence YLYMESTVESHL has a protein stability index (Saccharomyces cerevisiae [2]) of 0.719 ± 0.025.
YMTWRGCGWSGG showed a protein stability index (Saccharomyces cerevisiae [2]) of 0.697 ± 0.1.
YPDNRGRGPRQP gave a protein stability index (Saccharomyces cerevisiae [2]) of 0.686 ± 0.082.
In the case of YPDPLSVSPPPA, the protein stability index (Saccharomyces cerevisiae [2]) is reported as 0.682 ± 0.097.
YPSLPTLCSKQP showed a protein stability index (Saccharomyces cerevisiae [2]) of 0.643 ± 0.084.
YPTLHEPHSPAL was tested, and the protein stability index (Saccharomyces cerevisiae [2]) was 0.738 ± 0.052.
With YPTLMRNGTEKT the protein stability index (Saccharomyces cerevisiae [2]) was 0.696 ± 0.017.
Work on YPYLLSPRPPPP yielded a protein stability index (Saccharomyces cerevisiae [2]) of 0.628 ± 0.047.
With YQPLWTNTITGT the protein stability index (Saccharomyces cerevisiae [2]) was 0.799 ± 0.17.
YRFSKELEQKGQ showed a protein stability index (Saccharomyces cerevisiae [2]) of 0.68281 ± 0.0003.
YRLLRINFALPI showed a protein stability index (Saccharomyces cerevisiae [2]) of 0.622 ± 0.025.
In the case of YSRPAPSAPPHL, the protein stability index (Saccharomyces cerevisiae [2]) is reported as 0.698 ± 0.016.
Sequence YSRRRKILRKSY has a protein stability index (Saccharomyces cerevisiae [2]) of 0.615 ± 0.051.
With YSSALLHPTSPV the protein stability index (Saccharomyces cerevisiae [2]) was 0.655 ± 0.064.
Sequence YSSLLPLSSPSG has a protein stability index (Saccharomyces cerevisiae [2]) of 0.684 ± 0.04.
With YSVLVSLLPPSL the protein stability index (Saccharomyces cerevisiae [2]) was 0.681 ± 0.031.
Sequence YTAPIIGIGDDG has a protein stability index (Saccharomyces cerevisiae [2]) of 0.659 ± 0.036.
Work on YTKFASLKRHTQ yielded a protein stability index (Saccharomyces cerevisiae [2]) of 0.636 ± 0.034.
YTTLLVSTNRLS showed a protein stability index (Saccharomyces cerevisiae [2]) of 0.477 ± 0.082.
Sequence YVGLNHYCIDAL has a protein stability index (Saccharomyces cerevisiae [2]) of 0.723 ± 0.054.
With YVLLSRFYLPPL the protein stability index (Saccharomyces cerevisiae [2]) was 0.665 ± 0.02.
YVSLAHLRWGVE gave a protein stability index (Saccharomyces cerevisiae [2]) of 0.732 ± 0.055.
Sequence YVVMARWSRWYV has a protein stability index (Saccharomyces cerevisiae [2]) of 0.522 ± 0.015.
For YVWVPCIRSVLV, the protein stability index (Saccharomyces cerevisiae [2]) was 0.491 ± 0.018.
YWGEGGCREGGE gave a protein stability index (Saccharomyces cerevisiae [2]) of 0.664 ± 0.056.
YWSAQGRVVCVL was tested, and the protein stability index (Saccharomyces cerevisiae [2]) was 0.481 ± 0.07.
YYLAVGNRIASR showed a protein stability index (Saccharomyces cerevisiae [2]) of 0.688 ± 0.043.
Work on YYPLRIADQNGN yielded a protein stability index (Saccharomyces cerevisiae [2]) of 0.795 ± 0.054.
Work on YYRARRFRQSRR yielded a protein stability index (Saccharomyces cerevisiae [2]) of 0.709 ± 0.077.
